Laboratory results from publication PMC5045189, “High Resolution Mapping of Bactericidal Monoclonal Antibody Binding Epitopes on Staphylococcus aureus Antigen MntC” (PLoS Pathogens, 2016).

Experiments:
[1] = biological target: T1, Staphylococcus aureus manganese transporter protein MntC, wild type, recombinant (Staphylococcus aureus); assay: ITC; settings: both partners purified
T1 construct: also called wild type MntC; full length MntC; source: recombinant; cloning, expression and purification previously described [3]
T1 chain: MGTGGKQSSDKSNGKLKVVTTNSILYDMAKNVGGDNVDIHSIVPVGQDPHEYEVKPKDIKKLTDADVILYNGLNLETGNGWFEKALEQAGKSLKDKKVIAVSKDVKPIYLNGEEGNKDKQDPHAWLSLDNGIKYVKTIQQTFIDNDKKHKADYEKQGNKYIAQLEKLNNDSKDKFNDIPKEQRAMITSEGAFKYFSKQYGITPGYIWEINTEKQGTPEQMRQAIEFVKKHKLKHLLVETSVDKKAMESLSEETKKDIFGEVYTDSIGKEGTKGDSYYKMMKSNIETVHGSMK

[2] = biological target: T2, Histidine-tagged wild-type MntC (pET-19b) (Staphylococcus aureus); assay: BLI; settings: both partners purified
T2 construct: source: E. coli BL21(DE3), purified (HisPur Ni-NTA Agarose, size-exclusion chromatography); not shown: His-tag, N-terminal, kept
T2 chain: T1 chain

B1: monoclonal antibody mAB 305-78-7 (intact antibody, interference group 2) (antibody, V domains shown)
VH: QVQLQQSGAELARPGASVKMSCKASGYTFTRYTMHWVQQRPGQGLEWIGYINPSSDYTKYNQKFKDKATMTADKSSSTAYMQLSSLTSEDSAVYYCARKEDVGYWYFDFWGTGTTVTVSS
VL: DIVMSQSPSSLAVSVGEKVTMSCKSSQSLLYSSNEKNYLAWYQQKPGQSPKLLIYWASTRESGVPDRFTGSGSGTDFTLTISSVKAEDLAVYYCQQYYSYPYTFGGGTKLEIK
notes: source: generation previously described [3]
[1]
  Kd: 1.2 nM
  dH: -19.9 kcal/mol
[2]
  Kd: 1.2 nM
  koff: 0.00024 s⁻¹
  kon: 220000 M⁻¹ s⁻¹
